# Assay results reported in PMC4622665 (mAbs, 2014).
# Numbering of substitutions follows the chain as printed.
# B1: Fpro0084 IgG (antibody, V domains shown)
# VH: EVQLVESGGGLVKPGGSLRLSCAASGFTFSNAWMNWVRQAPGKGLEWVGRIKSKTDGGAADYAAPVKGRFTISRDDSKNTLYLQMNSLKTEDTAVYYCTTDQLGYDFWSGYYTDTLYYYFGMDVWGPGTTVTVSS
# VL: DIVMTQSPLSLPVTPGEPASISCRSSQQLQAYDGHNYLDWYLQKPGQSPQVLIYLGSNRASGVPDRFSGSGSGTDFTLKISRVEAEDVGVYYCMQALQTPLTFGGGTKVEIK
# B2: Hy38-1 IgG1 (antibody, V domains shown)
# VH: B1 VH
# VL: not shown
# B3: Fpro0067 IgG (antibody, V domains shown)
# VH: B1 VH
# VL: B1 VL with Q28P, Q30L, Y32M, L55Q, G56S, S57K, N58W
# Target: human formyl peptide receptor 1 (human, UniProt P21462)
# Sequence (P21462 whole entry): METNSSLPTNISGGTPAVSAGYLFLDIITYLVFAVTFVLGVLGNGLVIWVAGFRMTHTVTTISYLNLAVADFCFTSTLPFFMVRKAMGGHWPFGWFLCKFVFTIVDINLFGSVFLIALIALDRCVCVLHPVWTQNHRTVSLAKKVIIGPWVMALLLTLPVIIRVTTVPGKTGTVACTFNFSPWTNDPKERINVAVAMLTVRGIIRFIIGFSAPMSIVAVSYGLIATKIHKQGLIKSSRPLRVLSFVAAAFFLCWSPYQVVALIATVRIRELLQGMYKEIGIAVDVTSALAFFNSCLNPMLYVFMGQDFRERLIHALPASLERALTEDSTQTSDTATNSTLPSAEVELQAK
# Experiment: FMAT competition binding on cells
row,IC50,Binder
1,13 nM,B1
2,32 nM,B2
3,14 nM,B3
